Source: the nanobody polyreactivity screen of Harvey et al. (2022)

Experiment: yeast display, Sf9 membrane polyspecificity reagent, FACS + sequencing; frameworks hold sequencing errors
Procedure, shortened: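 Using colony PCR, genes from sorted yeast display clones were amplified, then sequenced on MiSeq at 2 × 250 and filtered by CDR length. The clones had been stained with 10% biotinylated, detergent-solubilized Sf9 membrane reagent for 1 hour at 4 °C and sorted by FACS into low and high (top ~1%) gates on anti-HA and streptavidin fluorescence. Polyreactivity labels come from the gate of origin.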

| Sequence | polyreactivity (PSR sort gate) |
| --- | --- |
| QVQHVESVGGLVQAGGSLRLSCAASVSTFYFYAMGWYRQAPGKERELVAVISSGGRTYYADSVKGRFTISRDKAKNTVYLQMNSLKPEDTAVYYCAASWPSSLTYYYWGQGTQVTVSS | low polyreactivity |
| QVQLVESGGGLVQAGGSLRLSCAASGFIFDHYAMGWYRQAPGKERELVAAISGSGGSTYYADSVKGRFPISRDNAKNTVYLQMNSLKPEDTAVYYCAARPGSKYAQRGYWGQGTHVTVSS | high polyreactivity |
| QVQLVESGGGLVQAGGSLRLSCADSGRIFSWNAMGRYRQAPRKERELVAAISSSGARTYYADSVKGRFTISRDNAKNTVYLQMNSLKPEDTAVYYCIAARSSQHYYSYNYWGQGTQVTVSS | high polyreactivity |
| QVQLVESGGGLVQAGGSLRLSCAASGGTIVWNAMGWYRQAPGKERELVAAITWSGGSTYYADSVKGRFTISRDNAKNTVYLPMNSLQPEATAVYYCNADRFGRAHVYPEFDYWGQGTQVTVSS | low polyreactivity |
| QVQLLESGGGLFQPGGSLRLSCAASGRTFDGNVMGWYRQAPGKETELVAAITASGGRTYYADSVKGRFTISSDNAKNTVYLQMNSLKAEDTAVYYCNAGIRRSRGTMDYWGQGTQVTVSS | high polyreactivity |
| QVQLVDSSGGLVQAGGSLSLSCAASGRTFGFYAMGWYIQAPGSERELVASITWRGGRKYYADSEMGSFTISRDNAKNTCYLQMISLKPEDTAVYYCAAAYHPYQGVTGHDGGYDYWGQGTQVTVSS | low polyreactivity |
| QVQLVESGGGVVQAGGSLRLSCAASGSTFYSYAMGWYRPAPGKERELVAAISWDGGRTYYADSVKGRFTISRDNAQNTVYLQMNSMKPEDTAVYYCAARKGELWFPQGGYNYSGQGTQVTVSS | low polyreactivity |
| QVQLVESGGGLVQAGGSLRLSCAASGSIFWGYEMGSYRQAPGKERELVAAINRGGSTYYADSVKGRFTRSRDNAKNTVYLQMNSLKPEDTAVYYCAAGYPSWYYGYPYDSWGQGTQVTVSS | low polyreactivity |
| QGQLVESGGGLVQAGGSLRLSCAASGSTFGKYVMGWYRQAHGKERELVAAISRSGGSTYYADSVKGRFTISRDNAKNTVYLQLNSLKPDDTAVYYCAAYNGITSHLRFDYWGQGTQVTVSS | high polyreactivity |
| QVQLVESGGGLVQAGGSLRLSFAASGSIFYRNSMGWYRQAPGKERELVAAISWSGASTYYADSVKGRFTISRDNAKNTVYLQMNSLKPEETAVYYCYAGKYAYLWLKLFDPKLDYWGQGTQVTVSS | low polyreactivity |
| QVQLVESGGGLVQAGGSLRLSCAASGSIFVYNAMGWYRQAPGKERELVAAITTGGSTNYADSVKGRFTISRDNAKNTVYLQMNSLKPEDTAVYDCNAVHEASYAGVDYWGQGTQVTVSS | low polyreactivity |
| QVQLVESGGGLVQAGGSLRLSCAASGSIFSAYSMGSYRQAHGKEREFVAAISKSGSSTYYADSVKGRFTISRDNAKNTVYLQMNSLKPEDTAVYYCAAESSSYYGYYIYYYWGQGTQVTVSS | high polyreactivity |
| QVQLVESGGGLVQAGGSLRLSCAASGSIFTYNAMGWYRQAPGKERELVAAISWSGGSRYYADSVKGRFTISRDNAKNTVYLQMNSLKPVDTAVYYCAAALQYRLYFYPKYDYWGQGTQVTVSS | high polyreactivity |
| QLQLVESGGGLVQAGGRLRLSCAASGITYFTYDMGWYRQAPGKERELVAAISGSGGSTYYADSVKGRFTISRDNAKNSFYLQMTSLKPEDTAVYYCAAEYTYGSPYDYWGQGTQVTVSS | low polyreactivity |
| QVQLVESGGGLVQAGGSLRLSCAASGSIFDYYAMGWYRQAPGKERELVAAIDNPDSTNYADSVKGRFTISRDNAKNTVYFQMNSLKPEDTAVYYCNADYWRYISSYDYWGQGTQVTVSS | low polyreactivity |
| QVQLVESGGGLDQAGGSLRLSCAASGYTFVGNAMGWYRQAPGKERELVAAISRSGGRTYYADSVKGRFTISRDNAKYTVYLQMNSLKPEDTAVYYCAKQPGSGPYYWGQGTQVTVSS | high polyreactivity |
| QVQLVESGGGLVQAGGTLRFSCAASGSILEYYTMGWDRQAPGKERELVAAISASGGNTYYADSVKGRFTISRANAKNTVYFQMNSLKPEDTAVYYCNAYYGPRGYGYWGQGTQVTVSS | high polyreactivity |
| QVQLVESGGGLVQAGGSLRLSCAASGGIFFLYAMGWYRQAPGKERELVAAIRQDGGSTYYADSVKGRFTISRDNAKNTVYLQMNSLKPEDTAVYYCNAGYVKTGLEYYYWGQGTQVTVSS | low polyreactivity |
| QVHLVESGGGLVQAGGSLRLSCAASGIIFYWNPMGWYRQAPGKERELVAAISWSGGSTYYADSVKGRFTISRDNAKNTVYLQMNSLKPEDTAVYYCNAVTTYYPQFRPGAIPGVGYGFWGQGTQVTVSS | low polyreactivity |
| QVQLVESGGGLVQAGGSLRLSCAASGGIFGRYAMGWYRQAPGKERELVAAISKRGGSTYYADSVKGRFTISRDNAKNTVYLQMNSLKPEDTAVYYCNAKRSLFGRYGYWGQGTQVTVSS | high polyreactivity |
| QVQLVESGGGLVQAGGSLRLSCAASGSTFEVNAMGWYRQAPGKERELVATITRSGGSTYYADSVKGRFTISRDNAKNTVYLQMNSLKPEDTAVYYCNAMWELKWGQGTQVTVSS | low polyreactivity |
